This is an account of results in patent publication US20240207418A1, “LINKERS, DRUG LINKERS AND CONJUGATES THEREOF AND METHODS OF USING THE SAME” (ProfoundBio US Co., priority 2021, published 2024).

Test [1] deals with T1, human FOLR1 protein (Homo sapiens, UniProt P15328).
T1 construct: His tag; purchased ACRO FO1-H52H1
In words: ELISA binding to human FOLR1 protein. On the procedure:
(§1) The ability of the antibodies to bind to human FOLR1 protein or to cross binding to cynomolgus FOLR1 protein was tested by standard ELISA. Briefly, the human FOLR1 (ACRO-FO1-H52H1) or cynomolgus FOLR1 protein (ACRO, F01-C52H8) with a His tag was diluted to 5 μg/ml with a carbonic acid coating solution at pH 9.6 and 100 μL antigen was coated in each well of 96-well microtiter plate at 4° C. overnight. The liquid in the wells was discarded and the wells were washed three times with PBST. The wells were then blocked with 4% skim milk powder-PBS (Sigma, D5652-1 L), using 300 μL/well and the plates incubated in 37° C. for 1 hour. The liquid in the wells was discarded, and the well were washed three times with PBS. Samples were added using 100 μL/well; PBS was added in the control group. The plates were incubated at 37° C. for 1 hour. The liquid in the wells was discarded and the wells were washed three times with PBST. HRP-goat anti-human IgG (Sigma, 118885-2ML) was added (with 1:5000 dilution, 100 μL/well) and the plates were incubated in 37° C. for 1 hour. Then the liquid in the wells was discarded, and the wells were washed five times with PBST. A TMB solution was added using 100 μL/well. 2M H2SO4 was added to each well using 50 μL to terminate the reaction after […]. The A450 values were read using a microplate reader.
(In general: ELISA stands for enzyme-linked immunosorbent assay.)

For test [2], the system named is cynomolgus FOLR1 protein. The test can be described thus: ELISA cross binding to cynomolgus FOLR1 protein. The protocol:
as §1

T1 sequence (P15328 25-234): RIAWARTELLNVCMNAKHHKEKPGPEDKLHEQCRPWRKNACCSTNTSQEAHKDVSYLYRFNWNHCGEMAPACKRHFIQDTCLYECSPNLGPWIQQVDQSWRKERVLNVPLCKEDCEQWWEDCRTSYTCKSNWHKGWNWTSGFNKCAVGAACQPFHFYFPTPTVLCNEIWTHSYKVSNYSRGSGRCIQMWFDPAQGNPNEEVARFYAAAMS

B1: F40: anti-FOLR1 antibody clone: "Clone F40 has a different HCDRs and LCDRs, and with different HFR and LFR" (antibody, V domains shown)
VH: EVQLLESGGGVVQPGRSLRLSCAASGFTFSSYAMHWVRQAPGKGLEWVAVISYDGSNKYYADSVKGRFIISRDNSKNTVYLQMNSLRAEDTAVYYCARPTYVFTYTGSSFDYWGQGTQVTVSS
VL: DIQVTQSPSSLSASLGDTVSITCRASRGLTDSVAWYQQKPGQAPKLLIYAASTLQSGVPSRFGGSGSGSYFTLTITSLQPEDVATYYCQNYKSAPWTFGQGTKVEIK
Regarding B1, the “OD450, Target: Human FOLR1 Protein His Tag, Diluted 1x” value in test [1] (supernatant diluted 1x) is 0.811 OD450. For the same molecule, the “OD450, Target: Human FOLR1 Protein His Tag, Diluted 5x” value in test [1] (supernatant diluted 5x) was found to be 0.382 OD450. Besides, the “OD450, Target: Human FOLR1 Protein His Tag, Diluted 25x” value in test [1] (supernatant diluted 25x) was 0.163 OD450. Moreover, the “Target binding, coating with Human FOLR1 Protein” value in test [1] (transfection supernatant, ELISA) is 2.3860 OD450. Further, in test [2] (supernatant diluted 1x), the “OD450, Target: Cynomolgus/Rhesus macaque FOLR1, Protein, His Tag, Diluted 1x” value was found to be 1.354 OD450. For the same molecule, the “OD450, Target: Cynomolgus/Rhesus macaque FOLR1, Protein, His Tag, Diluted 5x” value in test [2] (supernatant diluted 5x) is recorded as 1.111 OD450. Besides, the “OD450, Target: Cynomolgus/Rhesus macaque FOLR1, Protein, His Tag, Diluted 25x” value in test [2] (supernatant diluted 25x) was 0.924 OD450.
